Measurements published in PMC2710861.

How the values were obtained:
Rad52 [1] = molecular target: T1, Rad52 (human, UniProt P43351 1-418); experiment: SEC-MALS
T1 sequence: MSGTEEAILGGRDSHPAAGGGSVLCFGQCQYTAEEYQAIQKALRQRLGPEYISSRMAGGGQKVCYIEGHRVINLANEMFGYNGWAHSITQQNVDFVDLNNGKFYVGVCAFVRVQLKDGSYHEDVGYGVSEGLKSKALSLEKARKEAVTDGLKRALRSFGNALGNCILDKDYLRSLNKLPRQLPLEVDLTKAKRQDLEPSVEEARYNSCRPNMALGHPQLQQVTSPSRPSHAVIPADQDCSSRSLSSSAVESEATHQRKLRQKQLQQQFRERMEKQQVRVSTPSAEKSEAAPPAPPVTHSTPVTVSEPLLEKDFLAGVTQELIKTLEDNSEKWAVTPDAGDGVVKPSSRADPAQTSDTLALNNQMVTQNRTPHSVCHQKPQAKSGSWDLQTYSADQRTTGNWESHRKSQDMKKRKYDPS

Rad52 [2] = molecular target: T1, Rad52; experiment: EMSA
[3] = molecular target: RPA heterotrimer (RPA70/RPA32/RPA14);Rad52 (human;human, UniProt P27694;P15927;P35244;P43351 1-616;1-270;1-121;1-418, |); experiment: SEC-MALS and UV cross-linking
Rad52 [4] = molecular target: T1, Rad52; experiment: UV cross-linking
[5] = molecular target: RPA heterotrimer (RPA70/RPA32/RPA14) (human, UniProt P27694;P15927;P35244 1-616;1-270;1-121); experiment: EMSA
Chain of RPA heterotrimer (RPA70/RPA32/RPA14) (P27694 whole entry, chain 1 of 3): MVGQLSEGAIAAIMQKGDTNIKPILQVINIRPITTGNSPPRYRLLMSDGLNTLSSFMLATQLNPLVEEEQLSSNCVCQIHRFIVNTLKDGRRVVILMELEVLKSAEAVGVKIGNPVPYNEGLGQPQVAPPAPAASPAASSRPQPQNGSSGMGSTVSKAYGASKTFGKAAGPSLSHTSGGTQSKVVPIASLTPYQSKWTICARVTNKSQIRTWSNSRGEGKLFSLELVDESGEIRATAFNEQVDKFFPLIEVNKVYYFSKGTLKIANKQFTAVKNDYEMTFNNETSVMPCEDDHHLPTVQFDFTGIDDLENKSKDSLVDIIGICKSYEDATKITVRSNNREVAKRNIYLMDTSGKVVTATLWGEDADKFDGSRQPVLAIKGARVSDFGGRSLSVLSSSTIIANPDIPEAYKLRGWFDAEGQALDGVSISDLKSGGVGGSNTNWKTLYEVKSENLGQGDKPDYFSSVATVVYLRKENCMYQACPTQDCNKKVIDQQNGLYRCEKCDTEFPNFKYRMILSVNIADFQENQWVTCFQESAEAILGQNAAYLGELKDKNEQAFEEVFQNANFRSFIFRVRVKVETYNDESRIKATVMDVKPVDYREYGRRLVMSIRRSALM
Chain of RPA heterotrimer (RPA70/RPA32/RPA14) (P15927 whole entry, chain 2 of 3): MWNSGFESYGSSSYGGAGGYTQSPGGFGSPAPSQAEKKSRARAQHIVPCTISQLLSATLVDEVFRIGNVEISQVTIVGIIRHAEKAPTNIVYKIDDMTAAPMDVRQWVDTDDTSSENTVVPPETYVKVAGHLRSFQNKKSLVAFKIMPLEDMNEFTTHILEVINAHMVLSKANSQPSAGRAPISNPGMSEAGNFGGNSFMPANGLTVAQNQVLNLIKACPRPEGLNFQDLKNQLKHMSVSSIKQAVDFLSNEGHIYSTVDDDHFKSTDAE
Chain of RPA heterotrimer (RPA70/RPA32/RPA14) (P35244 whole entry, chain 3 of 3): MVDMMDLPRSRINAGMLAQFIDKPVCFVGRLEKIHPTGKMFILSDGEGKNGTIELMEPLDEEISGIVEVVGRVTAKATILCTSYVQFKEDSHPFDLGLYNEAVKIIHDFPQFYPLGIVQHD

Chain of RPA heterotrimer (RPA70/RPA32/RPA14);Rad52 (P27694 whole entry, chain 1 of 3): as the sequence (P27694 whole entry, chain 1 of 3) above
Chain of RPA heterotrimer (RPA70/RPA32/RPA14);Rad52 (P15927 whole entry, chain 2 of 3): as the sequence (P15927 whole entry, chain 2 of 3) above
Chain of RPA heterotrimer (RPA70/RPA32/RPA14);Rad52 (P35244 whole entry, chain 3 of 3): as the sequence (P35244 whole entry, chain 3 of 3) above

Binder: GCTAGCTCAATTCATCGACAAACCTCCTCGCTCAATTCATAGTC (ssDNA) [44-mer mixed sequence ssDNA]
- binding result (Rad52 [1]): binds

Binder: GCTAGCTCAATTCATCGACAAACCT (ssDNA) [25-mer mixed sequence ssDNA, 5'-biotin]
- binding result (Rad52 [2]): binds

Binder: GCTAGCTCAATTCATCGACAAACCT (ssDNA) [25-mer mixed sequence ssDNA, 3'-biotin]
- binding result [3]: binds
- binding result (Rad52 [4]): binds
- binding result [5]: binds
